Data from patent US20050186197A1.
Positions of bridges follow the written chain, without caps; N, C: chain ends. No end group written: not given here.

Legend:
[1] = molecular target: class C β-lactamase P99 from Enterobacter cloacae (Enterobacter cloacae) (UniProt P05364); experiment: β-lactamase inhibition assay (cephalosporin C)
TEM-1 β-lactamase = TEM-1 β-lactamase (UniProt P62593); experiment: β-lactamase inhibition assay (cephalosporin C)
[2] = molecular target: T1, class C β-lactamase P99 from Enterobacter cloacae (Enterobacter cloacae), P05364; experiment: β-lactamase inhibition assay (cephalosporin C), Ki from IC50 by Cheng-Prusoff
T1 sequence (P05364 21-381 limits assumed): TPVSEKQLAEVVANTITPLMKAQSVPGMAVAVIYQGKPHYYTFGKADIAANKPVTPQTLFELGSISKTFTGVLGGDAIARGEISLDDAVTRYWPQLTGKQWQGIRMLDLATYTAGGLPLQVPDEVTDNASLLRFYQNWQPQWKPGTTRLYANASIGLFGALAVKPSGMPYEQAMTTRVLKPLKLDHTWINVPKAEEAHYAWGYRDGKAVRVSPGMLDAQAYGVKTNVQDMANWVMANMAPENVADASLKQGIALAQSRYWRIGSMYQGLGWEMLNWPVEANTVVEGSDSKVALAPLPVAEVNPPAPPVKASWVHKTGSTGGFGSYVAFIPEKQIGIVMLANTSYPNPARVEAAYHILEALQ

[3] = molecular target: T2, TEM-1 β-lactamase, P62593; experiment: as above
T2 chain: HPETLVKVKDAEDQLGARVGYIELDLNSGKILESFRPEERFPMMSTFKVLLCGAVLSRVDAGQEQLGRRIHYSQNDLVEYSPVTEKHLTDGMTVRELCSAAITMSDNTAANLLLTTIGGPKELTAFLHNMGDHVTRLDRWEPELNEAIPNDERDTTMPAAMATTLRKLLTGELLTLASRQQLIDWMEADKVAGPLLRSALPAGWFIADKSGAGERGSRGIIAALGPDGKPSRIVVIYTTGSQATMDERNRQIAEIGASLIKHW

[4] = molecular target: T1, class C β-lactamase P99 from …; experiment: ratio of Ki values, β-lactamase inhibition assay
[5] = molecular target: T2, TEM-1 β-lactamase, P62593; experiment: ratio of Ki values, β-lactamase inhibition assay
[6] = molecular target: T2, TEM-1 β-lactamase, P62593; experiment: β-lactamase inhibition assay, disulfide-bonded peptide

For RR-NH2 (peptide), the Ki [1] was over 2000 µM and the Ki (TEM-1 β-lactamase) was over 2000 µM.

B1: AAGHYY-NH2 (peptide)
peptide: AAGHYY-NH2
Molecule B1 has a Ki [2] of 468 µM, a Ki [3] of 438 µM and a fold increase in Ki relative to RRGHYY-NH2 [4] of 3 fold. It also gave a fold increase in Ki relative to RRGHYY-NH2 [5] of 3 fold.

B2: RRGHYY-NH2 (peptide)
peptide: RRGHYY-NH2
Work on B2 yielded a Ki [2] of 140 µM, a Ki [3] of 136 µM and a fold improvement in affinity relative to disulfide bonded …-NH2 [5] of 25 fold. The fold improvement in affinity relative to …-NH2 [5] was 2 fold.

B3: …-NH2 (peptide)
peptide: HSAYSDTRRGDYG-NH2
In the case of B3, the Ki [2] is reported as 254 µM, the Ki [3] is reported as 298 µM and the fold increase in binding affinity relative to the cysteine peptide …-NH2 [5] is reported as 10 fold.

B4: …-NH2 (disulfide-bonded soluble peptide) (peptide)
peptide: HSACSDTRRGDCG-NH2
modifications: disulfide 4-12 (inferred)
In the case of B4, the Ki [6] is reported as 3500 µM.
